Source: article PMC3219604

Tested on: OrfAB-GFP GMF101 V179L ((insertion sequence IS2))
Assay: EMSA
Conditions: panel (50- or 87-mer) not stated in material; 20 mM Tris-Cl pH 8.0, 1 mM EDTA, 5 ug/mL calf thymus DNA, 10 nM DNA, 0.11-0.13 uM protein, 30 min at 20 C; gels at 4 C

With “GGATCCTTAAGTGATAACAGATGTCTGGAAATATAGGGGCAAATCCAGCG (double strand) [IRR 50-mer]” the binding signal (binding score (0-5)) was 3.
